Laboratory results: US20250314655A1
One block for each binder: values may come before it.

Key:
[1] = target: TRBC1 peptide (biotinylated) (human); experiment: TRF assay, scFv on biotin-peptide/neutravidin plate
[2] = target: TRBC2 peptide (biotinylated) (human); experiment: as above

TRBC1 Binding [1]: 1680 TRF units
B1: CP_03_F10 (scFv, not shown: small tags and cut ends)
scFv: EVQLVESGAEVKKPGASVKVSCKASGYTFTGYYMHWVRQAPGQGLEWMGRINPNSGGTNYAQKFQGRVTMTRDTSISTAYMELSSLRSEDTAVYYCARFGERYAFDIWGQGTLVTVSSGGGGSGGGGSGGGASQSELTQPPSASGSPGQSVTISCTGTSTDVGAFHFVSWYQHTPGKAPKLLISEVRKRASGVPDRFSGSRSGNTASLTVSGLQSEDEADYFCSAYTGSNYVFGSGTKLTVLGQPAA

TRBC1 Binding [1]: 789 TRF units
B2: CP_03_C12 (scFv, not shown: small tags and cut ends)
scFv: EVQLVQSGAEVKKPGASVKVSCKASGYTFTGYYMHWVRQAPGQGLEWMGWINPNSGGTNYAQKFQGRVTMTRDTSISTAYMELSSLRSEDTAVYYCARDTGPIDYWGQGTMVTVSSGGGGSGGGGSGGGASDIVMTQTPLSLSVTPGQPASISCKSSQSLLHSDGKTYLYWYLQKPGQPPQLLVYEVSNRFSGVPDKFSGSGSGTDFTLKISRVEAEDVGVYYCMQGIQLPPTFGGGTKVDIKRTAAA

TRBC1 Binding [1]: 1620 TRF units
B3: CP_03_E05 (scFv, not shown: small tags and cut ends)
scFv: EVQLVESGGGVVQPGGSLRLSCAASGFTFSSYAMSWVRQAPGKGLEWVSAISGSGGSTYYADSVKGRFSISRDNSKNTLYLQMNSLRAEDTAVYYCARTRSSGAFDIWGQGTLVTVSSGGGGSGGGGSGGGASNFMLTQPHSVSESPGKTVTISCTRSSGSIASKYVQWYQQRPGSSPTTVIYEDNQRPSGVPDRFSGSIDTSSNSASLTISGLRTEDEADYYCHSYDSNNHSVFGGGTKVTVLGQPAA

TRBC1 Binding [1]: 762 TRF units
B4: CP_03_D05 (scFv, not shown: small tags and cut ends)
scFv: QVQLVESGAEVKKPGASVKVSCKASGYTFTGYYMHWVRQAPGQGLEWMGRINPNSGGTNYAQKFQGRVTMTRDTSISTAYMELSRLRSDDTAVYYCASPRGRGSAFDIWGQGTLVTVSSGGGGSGGGGSGGGASSYELTQPPSVSVSPGQTATISCSGDQLGGKYGHWYQKKPGQSPVLVLYQDRKRPAGIPERFSGSSSGNTITLTISGTQAVDEADYYCQAWDTNLGGVFGGGTKVTVLGQPAA

TRBC2 Binding [2]: 298 TRF units
B6: CP_01_D12 (scFv, not shown: small tags and cut ends)
scFv: EVQLLESGGGVVQPGRSLRLSCAASGFTFSSYAMHWVRQAPGKGLEWVAVISYDGSNKYYADSVKGRFTISRDNSKNTLYLQMNSLRAEDTAVYYCAKGGDTYGFLDNWGQGTMVTVSSGGGGSGGGGSGGGASDIQMTQSPSTLSASVGDRVTITCRASQSISSWLAWYQQKPGKAPKLLIYKASSLESGVPSRFSGSGSGTDFTLTISSLQPEDFATYYCQQFNAYPLTFGGGTKVEIKRTAAA

TRBC2 Binding [2]: 622 TRF units
B8: CP_01_C11 (scFv, not shown: small tags and cut ends)
scFv: QVQLVESGAEVKKPGASVKVSCKASGYTFTGYYMHWVRQAPGQGLEWMGRINPNSGGTNYAQKFQGRVTMTRDTSISTAYMELSRLRSDDTAVYYCASGGAGWNWGQGTMVTVSSGGGGSGGGGSGGGASNFMLTQPHSVSESPGKTATISCTRSSGSIASNYVQWYQQRPGSAPTTVIYEDNQRPFGVPDRFSGSIDSSSNSASLTISGLKTEDEADYYCQSHDSSNVVFGGGTQLTVLGQPAA

More lines, now with the values behind:

B5: CP_03_H06 (scFv, not shown: small tags and cut ends)
scFv: QVQLVESGGGLVKPGGSLRLSCAASGFTFSDYYMSWIRQAPGKGLEWVSYISSSGSTIYYADSVEGRFTISRDNAKNSLYLQMNSLRTEDTAVYYCARARVGGMDVWGQGTMVTVSSGGGGSGGGGSGGGASNFMLTQPHSVSESPGKTVTISCTRSSGSIASNYVQWYQQRPGSSPTTVIYEDNQRPSGVPDRFSGSIDSSSNSASLTISGLKTEDEADYYCQSFDADNLHVVFGGGTKLTVLGQPAA
TRBC1 Binding [1]: 391 TRF units

B7: CP_01_D10 (scFv, not shown: small tags and cut ends)
scFv: QVQLVESGGGLVQPGRSLRLSCAASGFTFSSYAMHWVRQAPGKGLEWVAVISYDGSSKYYADSVKGRFTISRDNSKNTLYLQMNSLRAEDTAVYYCAKGGGSFGAFDIWGQGTLVTVSSGGGGSGGGGSGGGASDIQMTQSPSSLSASVGDRVTITCRASQSISRYLNWYQQKPGKAPNLLIYAASSLQSGVPSRFSGSGSGTDFTLTISSLQPEDFATYYCQQYNSYPLTFGGGTKLEIKRTAAA
TRBC2 Binding [2]: 306 TRF units

B9: CP_03_G09 (scFv, not shown: small tags and cut ends)
scFv: QVQLQQSGPGLVKPSQTLSLTCAISGDSVSSNSAAWNWIRQSPSRGLEWLGRTYYRSKWYNDYAVSVKSRITINPDTSKNQFSLQLNSVTPEDTAVYYCARDQWLANYYYYGMDVWGQGTLVTVSSGGGGSGGGGSGGGASSYELTQPLSVSVALGQTARITCGGNNIGSKNVHWYQQKPGQAPVLVIYRDNNRPSGIPERFSGSNSGNTATLTISKAQAGDEADYYCQVWDSNSWVFGGGTKLTVLGQPAA
TRBC1 Binding [1]: 979 TRF units

B10: CP_03_D09 (scFv, not shown: small tags and cut ends)
scFv: EVQLVQSGAEVKKPGSSVKVSCEASGYTFTSYAISWVRQAPGQGLEWMGWMNPNSGNTGYAQKFQGRVTMTRNTSISTAYMELSSLRSEDTAVYYCARVSSYYGMDVWGQGTLVTVSSGGGGSGGGGSGGGASNFMLTQPLSVSESPGKTVTISCTRSSGSIASNYVQWYQQRPGSAPTTVIYEDNQRPSGVPDRFSGSIDSSSNSASLTISGLKTEDEADYYCQSYNSSNHWVFGGGTKVTVLGQPAA
TRBC1 Binding [1]: 544 TRF units

B11: CP_03_F09 (scFv, not shown: small tags and cut ends)
scFv: QMQLVQSGAEVKKPGASVKVSCKASGYTFASYYMHWVRQAPGQGLEWMGIINPSGGSTSYAQKFQGRVTMTRDTSTSTVYMELSRLRSDDTAVYYCASNRGGSYKSVGMDVWGQGTTVTVSSGGGGSGGGGSGGGASNFMLTQPQSVSESPGKTVTISCTRSSGNFASKYVQWYQQRPGSSPTTVIYENYQRPSGVPDRFSGSIDSSSNSATLTISGLKTEDEADYYCQSYDEVSVVFGGGTQLTVLGQPAA
TRBC1 Binding [1]: 889 TRF units
